{"source": "paper PMC6515407", "about": "“Laccases with Variable Properties from Different Strains of Steccherinum ochraceum: Does Glycosylation Matter?” (International Journal of Molecular Sciences, 2019)", "proteins": {"B1": {"name": "So3827 (Steccherinum ochraceum) (protein)", "chain": "VQIGPVTDLHITNANIAPDGFTRPAVLAGGTFPGPTISGNTGDNFQITVFNELTETSMLTDTSIHWHGLFQKGTNWADGPAFVTQCPIITGNSFDYNFNVPGQAGTYWYHSHLSTQYCDGLRGPFVVYDPNDPNASLYDVDDDTTIITLADWYHTLAQQEPIGAAITADATLINGLGRSFTNTTASPLSVITVQSGKRYRMRLVSISCDPNYQFSIDGHDMTIIEVDGVNSQQLTVDQIQIFAAQRYSFVLNANQPVGNYWIRAQPNSGGQGFDGGINSAILRYEGATVADPTTSPPTTFTSPLVETNLHPLADLGVPGQPFRGGADDPMVLNLGFANGRFTIDGVSFVPPTVPVLLQILSGAQNAQDLLPAGSVISLPPNSVIEVALPAGAAGGPHPFHLHGHNFAVVQSANNATPNYVNPIWRDTVSIGGTGDNVTIRFTTNNPGPWFLHCHIDWHLEAGFAIVFAEDIPDTASANPVPQAWSDLCPAYDQAHNISTAT"}, "B2": {"name": "So3120 (Steccherinum ochraceum) (protein)", "chain": "B1 chain"}, "B3": {"name": "So3174 (Steccherinum ochraceum) (protein)", "chain": "B1 chain"}, "B4": {"name": "So3398 (Steccherinum ochraceum) (protein)", "chain": "B1 chain"}, "B5": {"name": "So3617 (Steccherinum ochraceum) (protein)", "chain": "B1 chain"}, "B6": {"name": "So2134 (Steccherinum ochraceum) (protein)", "chain": "B1 chain"}, "B7": {"name": "So3622 (Steccherinum ochraceum) (protein)", "chain": "B1 chain"}}, "conditions_in_all_cases": "0.1 M McIlvaine buffer pH 4.5, 25 °C, native glycosylated enzyme", "key": {"[1]": {"substrate": "CCn1c(=NN=c2sc3cc(S(=O)(=O)O)ccc3n2CC)sc2cc(S(=O)(=O)O)ccc21", "test": "spectrophotometric oxidation kinetics", "assay_type": "biochemical, Steccherinum ochraceum", "source_text": "(§1) spectrophotometric oxidation kinetics on So3827"}, "[2]": {"substrate": "COc1cc(C=NN=Cc2cc(OC)c(O)c(OC)c2)cc(OC)c1O", "test": "spectrophotometric oxidation kinetics", "assay_type": "biochemical, Steccherinum ochraceum", "source_text": "as §1"}, "[3]": {"substrate": "CCn1c(=NN=c2sc3cc(S(=O)(=O)O)ccc3n2CC)sc2cc(S(=O)(=O)O)ccc21", "test": "spectrophotometric oxidation kinetics", "assay_type": "biochemical, Steccherinum ochraceum", "source_text": "(§2) spectrophotometric oxidation kinetics on So3120", "remark": "listed apart in the source"}, "[4]": {"substrate": "COc1cc(C=NN=Cc2cc(OC)c(O)c(OC)c2)cc(OC)c1O", "test": "spectrophotometric oxidation kinetics", "assay_type": "biochemical, Steccherinum ochraceum", "source_text": "as §2", "remark": "listed apart in the source"}, "[5]": {"substrate": "COc1cccc(OC)c1O", "test": "spectrophotometric oxidation kinetics", "assay_type": "biochemical, Steccherinum ochraceum", "source_text": "as §2"}, "purified protein": {"substrate": "COc1ccccc1O", "test": "purified protein"}, "[6]": {"substrate": "CCn1c(=NN=c2sc3cc(S(=O)(=O)O)ccc3n2CC)sc2cc(S(=O)(=O)O)ccc21", "test": "spectrophotometric oxidation kinetics", "assay_type": "biochemical, Steccherinum ochraceum", "source_text": "(§3) spectrophotometric oxidation kinetics on So3174", "remark": "listed apart in the source"}, "[7]": {"substrate": "COc1cc(C=NN=Cc2cc(OC)c(O)c(OC)c2)cc(OC)c1O", "test": "spectrophotometric oxidation kinetics", "assay_type": "biochemical, Steccherinum ochraceum", "source_text": "as §3", "remark": "listed apart in the source"}, "[8]": {"substrate": "COc1cccc(OC)c1O", "test": "spectrophotometric oxidation kinetics", "assay_type": "biochemical, Steccherinum ochraceum", "source_text": "as §3", "remark": "listed apart in the source"}, "[9]": {"substrate": "Oc1ccccc1O", "test": "spectrophotometric oxidation kinetics", "assay_type": "biochemical, Steccherinum ochraceum", "source_text": "as §3"}, "[10]": {"substrate": "CCn1c(=NN=c2sc3cc(S(=O)(=O)O)ccc3n2CC)sc2cc(S(=O)(=O)O)ccc21", "test": "spectrophotometric oxidation kinetics", "assay_type": "biochemical, Steccherinum ochraceum", "source_text": "(§4) spectrophotometric oxidation kinetics on So3398", "remark": "listed apart in the source"}, "[11]": {"substrate": "COc1cc(C=NN=Cc2cc(OC)c(O)c(OC)c2)cc(OC)c1O", "test": "spectrophotometric oxidation kinetics", "assay_type": "biochemical, Steccherinum ochraceum", "source_text": "as §4", "remark": "listed apart in the source"}, "[12]": {"substrate": "COc1cccc(OC)c1O", "test": "spectrophotometric oxidation kinetics", "assay_type": "biochemical, Steccherinum ochraceum", "source_text": "as §4", "remark": "listed apart in the source"}, "[13]": {"substrate": "CCn1c(=NN=c2sc3cc(S(=O)(=O)O)ccc3n2CC)sc2cc(S(=O)(=O)O)ccc21", "test": "spectrophotometric oxidation kinetics", "assay_type": "biochemical, Steccherinum ochraceum", "source_text": "(§5) spectrophotometric oxidation kinetics on So3617", "remark": "listed apart in the source"}, "[14]": {"substrate": "COc1cc(C=NN=Cc2cc(OC)c(O)c(OC)c2)cc(OC)c1O", "test": "spectrophotometric oxidation kinetics", "assay_type": "biochemical, Steccherinum ochraceum", "source_text": "as §5", "remark": "listed apart in the source"}, "[15]": {"substrate": "CCn1c(=NN=c2sc3cc(S(=O)(=O)O)ccc3n2CC)sc2cc(S(=O)(=O)O)ccc21", "test": "spectrophotometric oxidation kinetics", "assay_type": "biochemical, Steccherinum ochraceum", "source_text": "(§6) spectrophotometric oxidation kinetics on So2134", "remark": "listed apart in the source"}, "[16]": {"substrate": "COc1cc(C=NN=Cc2cc(OC)c(O)c(OC)c2)cc(OC)c1O", "test": "spectrophotometric oxidation kinetics", "assay_type": "biochemical, Steccherinum ochraceum", "source_text": "as §6", "remark": "listed apart in the source"}, "[17]": {"substrate": "COc1cccc(OC)c1O", "test": "spectrophotometric oxidation kinetics", "assay_type": "biochemical, Steccherinum ochraceum", "source_text": "as §6", "remark": "listed apart in the source"}, "[18]": {"substrate": "CCn1c(=NN=c2sc3cc(S(=O)(=O)O)ccc3n2CC)sc2cc(S(=O)(=O)O)ccc21", "test": "spectrophotometric oxidation kinetics", "assay_type": "biochemical, Steccherinum ochraceum", "source_text": "(§7) spectrophotometric oxidation kinetics on So3622", "remark": "listed apart in the source"}, "[19]": {"substrate": "COc1cc(C=NN=Cc2cc(OC)c(O)c(OC)c2)cc(OC)c1O", "test": "spectrophotometric oxidation kinetics", "assay_type": "biochemical, Steccherinum ochraceum", "source_text": "as §7", "remark": "listed apart in the source"}}}
{"protein": "B1", "values": [{"measurement": "Km", "setting": "[1]", "result": "200 ± 7", "unit": "µM"}, {"measurement": "kcat", "setting": "[1]", "result": "276 ± 31", "unit": "s⁻¹"}, {"measurement": "kcat/Km", "setting": "[1]", "result": "1.38e+06 ± 162000", "unit": "M⁻¹ s⁻¹"}, {"measurement": "Km", "setting": "[2]", "result": "6.7 ± 0.9", "unit": "µM"}, {"measurement": "kcat", "setting": "[2]", "result": "113 ± 12", "unit": "s⁻¹"}, {"measurement": "kcat/Km", "setting": "[2]", "result": "1.69e+07 ± 2.87e+06", "unit": "M⁻¹ s⁻¹"}]}
{"protein": "B2", "values": [{"measurement": "Km", "setting": "[3]", "result": "175 ± 23", "unit": "µM"}, {"measurement": "kcat", "setting": "[3]", "result": "325 ± 28", "unit": "s⁻¹"}, {"measurement": "kcat/Km", "setting": "[3]", "result": "1.86e+06 ± 290000", "unit": "M⁻¹ s⁻¹"}, {"measurement": "Km", "setting": "[4]", "result": "5.4 ± 0.8", "unit": "µM"}, {"measurement": "kcat", "setting": "[4]", "result": "105 ± 12", "unit": "s⁻¹"}, {"measurement": "kcat/Km", "setting": "[4]", "result": "1.94e+07 ± 3.62e+06", "unit": "M⁻¹ s⁻¹"}, {"measurement": "Km", "setting": "[5]", "result": "17 ± 3", "unit": "µM"}, {"measurement": "kcat", "setting": "[5]", "result": "110 ± 14", "unit": "s⁻¹"}, {"measurement": "kcat/Km", "setting": "[5]", "result": "6.47e+06 ± 1.27e+06", "unit": "M⁻¹ s⁻¹"}]}
{"protein": "B3", "values": [{"measurement": "Km", "setting": "purified protein", "result": "2230 ± 205", "unit": "µM"}, {"measurement": "kcat", "setting": "purified protein", "result": 152, "unit": "s⁻¹"}, {"measurement": "kcat/Km", "setting": "purified protein", "result": 68000, "unit": "M⁻¹ s⁻¹"}, {"measurement": "Km", "setting": "[6]", "result": "81 ± 9", "unit": "µM"}, {"measurement": "kcat", "setting": "[6]", "result": "240 ± 21", "unit": "s⁻¹"}, {"measurement": "kcat/Km", "setting": "[6]", "result": "2.96e+06 ± 416000", "unit": "M⁻¹ s⁻¹"}, {"measurement": "Km", "setting": "[7]", "result": "3.8 ± 0.6", "unit": "µM"}, {"measurement": "kcat", "setting": "[7]", "result": "104 ± 11", "unit": "s⁻¹"}, {"measurement": "kcat/Km", "setting": "[7]", "result": "2.74e+07 ± 5.09e+06", "unit": "M⁻¹ s⁻¹"}, {"measurement": "Km", "setting": "[8]", "result": "20 ± 2", "unit": "µM"}, {"measurement": "kcat", "setting": "[8]", "result": "101 ± 9", "unit": "s⁻¹"}, {"measurement": "kcat/Km", "setting": "[8]", "result": "5.05e+06 ± 755000", "unit": "M⁻¹ s⁻¹"}, {"measurement": "Km", "setting": "[9]", "result": "576 ± 86", "unit": "µM"}, {"measurement": "kcat", "setting": "[9]", "result": "373 ± 27", "unit": "s⁻¹"}, {"measurement": "kcat/Km", "setting": "[9]", "result": "648000 ± 108000", "unit": "M⁻¹ s⁻¹"}]}
{"protein": "B4", "values": [{"measurement": "Km", "setting": "[10]", "result": "209 ± 27", "unit": "µM"}, {"measurement": "kcat", "setting": "[10]", "result": "281 ± 26", "unit": "s⁻¹"}, {"measurement": "kcat/Km", "setting": "[10]", "result": "1.34e+06 ± 214000", "unit": "M⁻¹ s⁻¹"}, {"measurement": "Km", "setting": "[11]", "result": "5.6 ± 0.8", "unit": "µM"}, {"measurement": "kcat", "setting": "[11]", "result": "119 ± 11", "unit": "s⁻¹"}, {"measurement": "kcat/Km", "setting": "[11]", "result": "2.12e+07 ± 3.56e+06", "unit": "M⁻¹ s⁻¹"}, {"measurement": "Km", "setting": "[12]", "result": "17 ± 3", "unit": "µM"}, {"measurement": "kcat", "setting": "[12]", "result": "152 ± 12", "unit": "s⁻¹"}, {"measurement": "kcat/Km", "setting": "[12]", "result": "8.94e+06 ± 1.52e+06", "unit": "M⁻¹ s⁻¹"}]}
{"protein": "B5", "values": [{"measurement": "Km", "setting": "[13]", "result": "212 ± 10", "unit": "µM"}, {"measurement": "kcat", "setting": "[13]", "result": "228 ± 21", "unit": "s⁻¹"}, {"measurement": "kcat/Km", "setting": "[13]", "result": "1.08e+06 ± 111000", "unit": "M⁻¹ s⁻¹"}, {"measurement": "Km", "setting": "[14]", "result": "5.2 ± 0.6", "unit": "µM"}, {"measurement": "kcat", "setting": "[14]", "result": "89 ± 10", "unit": "s⁻¹"}, {"measurement": "kcat/Km", "setting": "[14]", "result": "1.71e+07 ± 2.69e+06", "unit": "M⁻¹ s⁻¹"}]}
{"protein": "B6", "values": [{"measurement": "Km", "setting": "[15]", "result": "100 ± 6", "unit": "µM"}, {"measurement": "kcat", "setting": "[15]", "result": "254 ± 23", "unit": "s⁻¹"}, {"measurement": "kcat/Km", "setting": "[15]", "result": "2.54e+06 ± 276000", "unit": "M⁻¹ s⁻¹"}, {"measurement": "Km", "setting": "[16]", "result": "3.7 ± 0.5", "unit": "µM"}, {"measurement": "kcat", "setting": "[16]", "result": "91 ± 7", "unit": "s⁻¹"}, {"measurement": "kcat/Km", "setting": "[16]", "result": "2.46e+07 ± 3.93e+06", "unit": "M⁻¹ s⁻¹"}, {"measurement": "Km", "setting": "[17]", "result": "21 ± 2", "unit": "µM"}, {"measurement": "kcat", "setting": "[17]", "result": "166 ± 14", "unit": "s⁻¹"}, {"measurement": "kcat/Km", "setting": "[17]", "result": "7.9e+06 ± 1.03e+06", "unit": "M⁻¹ s⁻¹"}]}
{"protein": "B7", "values": [{"measurement": "Km", "setting": "[18]", "result": "174 ± 11", "unit": "µM"}, {"measurement": "kcat", "setting": "[18]", "result": "252 ± 20", "unit": "s⁻¹"}, {"measurement": "kcat/Km", "setting": "[18]", "result": "1.45e+06 ± 147000", "unit": "M⁻¹ s⁻¹"}, {"measurement": "Km", "setting": "[19]", "result": "5.5 ± 0.7", "unit": "µM"}, {"measurement": "kcat", "setting": "[19]", "result": "83 ± 7", "unit": "s⁻¹"}, {"measurement": "kcat/Km", "setting": "[19]", "result": "1.51e+07 ± 2.21e+06", "unit": "M⁻¹ s⁻¹"}]}
